# Reference: article PMC10687032, “Phosphorylation of USP27X by GSK3β maintains the stability and oncogenic functions of CBX2” (Cell Death & Disease, 2023)
# T1: His-Myc-CBX2 (human, UniProt Q14781 1-532)
# T1 construct: Chromobox protein homolog 2 (CBX2), human; the His-Myc construct is named only in the pull-down methods; the cloning of a His-Myc construct is not described; also called Purified Myc-CBX2
# T1 sequence (looked up): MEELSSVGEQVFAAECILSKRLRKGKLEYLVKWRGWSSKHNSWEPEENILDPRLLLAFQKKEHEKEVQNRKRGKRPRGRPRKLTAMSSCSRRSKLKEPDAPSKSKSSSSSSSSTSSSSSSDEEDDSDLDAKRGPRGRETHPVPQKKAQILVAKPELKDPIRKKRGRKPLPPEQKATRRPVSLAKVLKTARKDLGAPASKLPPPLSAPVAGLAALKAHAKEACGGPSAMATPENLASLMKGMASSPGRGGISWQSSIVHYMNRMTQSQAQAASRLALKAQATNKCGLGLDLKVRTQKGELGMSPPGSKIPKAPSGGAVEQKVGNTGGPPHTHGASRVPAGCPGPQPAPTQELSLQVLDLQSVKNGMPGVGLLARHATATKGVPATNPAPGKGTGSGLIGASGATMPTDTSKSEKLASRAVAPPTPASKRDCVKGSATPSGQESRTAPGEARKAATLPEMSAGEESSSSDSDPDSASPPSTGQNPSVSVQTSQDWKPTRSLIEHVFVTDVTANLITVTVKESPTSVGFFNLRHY
# B1: GST-USP27X (enzyme, human, UniProt A6NNY8 1-438, looked up)
# chain: MCKDYVYDKDIEQIAKEEQGEALKLQASTSTEVSHQQCSVPGLGEKFPTWETTKPELELLGHNPRRRRITSSFTIGLRGLINLGNTCFMNCIVQALTHTPILRDFFLSDRHRCEMPSPELCLVCEMSSLFRELYSGNPSPHVPYKLLHLVWIHARHLAGYRQQDAHEFLIAALDVLHRHCKGDDVGKAANNPNHCNCIIDQIFTGGLQSDVTCQACHGVSTTIDPCWDISLDLPGSCTSFWPMSPGRESSVNGESHIPGITTLTDCLRRFTRPEHLGSSAKIKCGSCQSYQESTKQLTMNKLPVVACFHFKRFEHSAKQRRKITTYISFPLELDMTPFMASSKESRMNGQLQLPTNSGNNENKYSLFAVVNHQGTLESGHYTSFIRHHKDQWFKCDDAVITKASIKDVLDSEGYLLFYHKQVLEHESEKVKEMNTQAY
# notes: ubiquitin-specific peptidase 27X (USP27X), human cDNA cloned into pGEX-1λT (plasmids section) or pGEX-4T-1 (pull-down section); also called GST-USP27X-WT; Recombinant GST-USP27X; source: E. coli BL21, purified (GST beads)
# What was measured:
# [1] = target: CBX2 (UniProt Q14781); assay: co-IP with anti-Myc, anti-HA immunoblot; details: reference: HA-USP27X wild type; sites S135
# [2] = target: T1, His-Myc-CBX2; assay: pull-down; GST-USP27X bound to glutathione-Sepharose 4B beads incubated with His-Myc-CBX2 for 2 h at 4 °C; retained proteins immunoblotted; details: both partners purified
molecule,measurement,setting,value
USP27X (from UniProt A6NNY8) HA-USP27X S135A,binding against the reference,[1],weaker
B1,binding result,[2],binds
